Results: article PMC11063343

Target: cellugyrin Inner loop 1A peptide
Test: SPR

## full length SARS-CoV-2 spike protein (from UniProt P0DTC2) (natural protein)
  maximum RU: 220 RU
